Experimental data as given in IntAct's records for PubMed 20485341.

B1: Interleukin-1 receptor-associated kinase 4 (Homo sapiens), Q9NWZ3 (parent)
chain: MNKPITPSTYVRCLNVGLIRKLSDFIDPQEGWKKLAVAIKKPSGDDRYNQFHIRRFEALLQTGKSPTSELLFDWGTTNCTVGDLVDLLIQNEFFAPASLLLPDAVPKTANTLPSKEAITVQQKQMPFCDKDRTLMTPVQNLEQSYMPPDSSSPENKSLEVSDTRFHSFSFYELKNVTNNFDERPISVGGNKMGEGGFGVVYKGYVNNTTVAVKKLAAMVDITTEELKQQFDQEIKVMAKCQHENLVELLGFSSDGDDLCLVYVYMPNGSLLDRLSCLDGTPPLSWHMRCKIAQGAANGINFLHENHHIHRDIKSANILLDEAFTAKISDFGLARASEKFAQTVMTSRIVGTTAYMAPEALRGEITPKSDIYSFGVVLLEIITGLPAVDEHREPQLLLDIKEEIEDEEKTIEDYIDKKMNDADSTSVEAMYSVASQCLHEKKNKRPDIKKVQQLLQEMTAS
B2: Interleukin-1 receptor-associated kinase 4 (Homo sapiens), Q9NWZ3 (parent)
chain: B1 chain
partner: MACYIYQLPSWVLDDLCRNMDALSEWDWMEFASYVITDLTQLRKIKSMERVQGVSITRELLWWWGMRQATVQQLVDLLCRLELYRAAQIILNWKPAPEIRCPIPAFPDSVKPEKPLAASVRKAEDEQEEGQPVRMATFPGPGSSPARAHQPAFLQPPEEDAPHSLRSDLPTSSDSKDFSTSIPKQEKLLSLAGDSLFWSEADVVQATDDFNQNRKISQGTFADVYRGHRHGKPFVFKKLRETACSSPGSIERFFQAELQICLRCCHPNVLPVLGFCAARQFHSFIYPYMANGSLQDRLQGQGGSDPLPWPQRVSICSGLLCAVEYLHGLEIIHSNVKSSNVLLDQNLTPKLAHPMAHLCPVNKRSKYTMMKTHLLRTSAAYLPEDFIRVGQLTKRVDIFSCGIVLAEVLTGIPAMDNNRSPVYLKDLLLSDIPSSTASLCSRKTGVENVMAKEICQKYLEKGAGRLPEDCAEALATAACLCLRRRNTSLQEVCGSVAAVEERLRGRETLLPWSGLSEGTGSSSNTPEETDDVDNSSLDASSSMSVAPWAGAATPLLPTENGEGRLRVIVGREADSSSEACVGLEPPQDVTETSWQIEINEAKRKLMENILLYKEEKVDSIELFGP

Variants of: B1
Details: with MYD88, Q99836-1
Chain of MYD88, Q99836-1 (Q99836 whole entry): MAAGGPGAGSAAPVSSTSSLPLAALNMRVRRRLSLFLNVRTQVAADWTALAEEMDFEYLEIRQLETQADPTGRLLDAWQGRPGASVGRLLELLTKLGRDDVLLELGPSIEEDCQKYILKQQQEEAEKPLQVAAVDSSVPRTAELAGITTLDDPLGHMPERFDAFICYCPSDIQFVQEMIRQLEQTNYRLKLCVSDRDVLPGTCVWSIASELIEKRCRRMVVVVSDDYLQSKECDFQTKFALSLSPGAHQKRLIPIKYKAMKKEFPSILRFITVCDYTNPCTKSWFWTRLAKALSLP

Variant	effect of a mutation on the interaction
MNKPITPSTYVACLNVGLIRKLSDFIDPQEGWKKLAVAIKKPSGDDRYNQFHIRRFEALLQTGKSPTSELLFDWGTTNCTVGDLVDLLIQNEFFAPASLLLPDAVPKTANTLPSKEAITVQQKQMPFCDKDRTLMTPVQNLEQSYMPPDSSSPENKSLEVSDTRFHSFSFYELKNVTNNFDERPISVGGNKMGEGGFGVVYKGYVNNTTVAVKKLAAMVDITTEELKQQFDQEIKVMAKCQHENLVELLGFSSDGDDLCLVYVYMPNGSLLDRLSCLDGTPPLSWHMRCKIAQGAANGINFLHENHHIHRDIKSANILLDEAFTAKISDFGLARASEKFAQTVMTSRIVGTTAYMAPEALRGEITPKSDIYSFGVVLLEIITGLPAVDEHREPQLLLDIKEEIEDEEKTIEDYIDKKMNDADSTSVEAMYSVASQCLHEKKNKRPDIKKVQQLLQEMTAS [R12A]	disrupting interaction
MNKPITPSTYVRCLNEGLIEKLSDFIDPQEGWKKLAVAIKKPSGDDRYNQFHIRRFEALLQTGKSPTSELLFDWGTTNCTVGDLVDLLIQNEFFAPASLLLPDAVPKTANTLPSKEAITVQQKQMPFCDKDRTLMTPVQNLEQSYMPPDSSSPENKSLEVSDTRFHSFSFYELKNVTNNFDERPISVGGNKMGEGGFGVVYKGYVNNTTVAVKKLAAMVDITTEELKQQFDQEIKVMAKCQHENLVELLGFSSDGDDLCLVYVYMPNGSLLDRLSCLDGTPPLSWHMRCKIAQGAANGINFLHENHHIHRDIKSANILLDEAFTAKISDFGLARASEKFAQTVMTSRIVGTTAYMAPEALRGEITPKSDIYSFGVVLLEIITGLPAVDEHREPQLLLDIKEEIEDEEKTIEDYIDKKMNDADSTSVEAMYSVASQCLHEKKNKRPDIKKVQQLLQEMTAS [V16E;R20E]	disrupting interaction

Results, then the variant that gave them:

effect of a mutation on the interaction	Variant
disrupting interaction	MNKPITPSTYVRCLNVGLIRKLSDFIDPQEGWKKLAVAIKKPSGDDRYNQFHIRRFEALLQTGKSPTSELLFDWGETNCTVGDLVDLLIQNEFFAPASLLLPDAVPKTANTLPSKEAITVQQKQMPFCDKDRTLMTPVQNLEQSYMPPDSSSPENKSLEVSDTRFHSFSFYELKNVTNNFDERPISVGGNKMGEGGFGVVYKGYVNNTTVAVKKLAAMVDITTEELKQQFDQEIKVMAKCQHENLVELLGFSSDGDDLCLVYVYMPNGSLLDRLSCLDGTPPLSWHMRCKIAQGAANGINFLHENHHIHRDIKSANILLDEAFTAKISDFGLARASEKFAQTVMTSRIVGTTAYMAPEALRGEITPKSDIYSFGVVLLEIITGLPAVDEHREPQLLLDIKEEIEDEEKTIEDYIDKKMNDADSTSVEAMYSVASQCLHEKKNKRPDIKKVQQLLQEMTAS [T76E]
disrupting interaction	MNKPITPSTYVRCLNVGLIRKLSDFIDPQEGWKKLAVAIKKPSGDDRYNQFHIRRFEALLQTGKSPTSKLLFDWGTTNCTVGDLVDLLIQNEFFAPASLLLPDAVPKTANTLPSKEAITVQQKQMPFCDKDRTLMTPVQNLEQSYMPPDSSSPENKSLEVSDTRFHSFSFYELKNVTNNFDERPISVGGNKMGEGGFGVVYKGYVNNTTVAVKKLAAMVDITTEELKQQFDQEIKVMAKCQHENLVELLGFSSDGDDLCLVYVYMPNGSLLDRLSCLDGTPPLSWHMRCKIAQGAANGINFLHENHHIHRDIKSANILLDEAFTAKISDFGLARASEKFAQTVMTSRIVGTTAYMAPEALRGEITPKSDIYSFGVVLLEIITGLPAVDEHREPQLLLDIKEEIEDEEKTIEDYIDKKMNDADSTSVEAMYSVASQCLHEKKNKRPDIKKVQQLLQEMTAS [E69K]
disrupting interaction	MNKPITPSTYVRCLNVGLIRKLSDFIDPQEGWKKLAVAIKKPSGDDRYNQFHIRRFEALLQTGKSPTSELLFDWGTTECTVGDLVDLLIQNEFFAPASLLLPDAVPKTANTLPSKEAITVQQKQMPFCDKDRTLMTPVQNLEQSYMPPDSSSPENKSLEVSDTRFHSFSFYELKNVTNNFDERPISVGGNKMGEGGFGVVYKGYVNNTTVAVKKLAAMVDITTEELKQQFDQEIKVMAKCQHENLVELLGFSSDGDDLCLVYVYMPNGSLLDRLSCLDGTPPLSWHMRCKIAQGAANGINFLHENHHIHRDIKSANILLDEAFTAKISDFGLARASEKFAQTVMTSRIVGTTAYMAPEALRGEITPKSDIYSFGVVLLEIITGLPAVDEHREPQLLLDIKEEIEDEEKTIEDYIDKKMNDADSTSVEAMYSVASQCLHEKKNKRPDIKKVQQLLQEMTAS [N78E]

Variants of: B2
Details: with irak2_human IRAK2, O43187

Variant	effect of a mutation on the interaction
MNKPITPSTYVRCLNVGLIRKLSDFIDPQEGWKKLAVAIKKPSGDDRYNQDHIRRFEALLQTGKSPTSELLFDWGTTNCTVGDLVDLLIQNEFFAPASLLLPDAVPKTANTLPSKEAITVQQKQMPFCDKDRTLMTPVQNLEQSYMPPDSSSPENKSLEVSDTRFHSFSFYELKNVTNNFDERPISVGGNKMGEGGFGVVYKGYVNNTTVAVKKLAAMVDITTEELKQQFDQEIKVMAKCQHENLVELLGFSSDGDDLCLVYVYMPNGSLLDRLSCLDGTPPLSWHMRCKIAQGAANGINFLHENHHIHRDIKSANILLDEAFTAKISDFGLARASEKFAQTVMTSRIVGTTAYMAPEALRGEITPKSDIYSFGVVLLEIITGLPAVDEHREPQLLLDIKEEIEDEEKTIEDYIDKKMNDADSTSVEAMYSVASQCLHEKKNKRPDIKKVQQLLQEMTAS [F51D]	disrupting interaction
MNKPITPSTYVRCLNVGLIRKLSDDIDPQEGWKKLAVAIKKPSGDDRYNQFHIRRFEALLQTGKSPTSELLFDWGTTNCTVGDLVDLLIQNEFFAPASLLLPDAVPKTANTLPSKEAITVQQKQMPFCDKDRTLMTPVQNLEQSYMPPDSSSPENKSLEVSDTRFHSFSFYELKNVTNNFDERPISVGGNKMGEGGFGVVYKGYVNNTTVAVKKLAAMVDITTEELKQQFDQEIKVMAKCQHENLVELLGFSSDGDDLCLVYVYMPNGSLLDRLSCLDGTPPLSWHMRCKIAQGAANGINFLHENHHIHRDIKSANILLDEAFTAKISDFGLARASEKFAQTVMTSRIVGTTAYMAPEALRGEITPKSDIYSFGVVLLEIITGLPAVDEHREPQLLLDIKEEIEDEEKTIEDYIDKKMNDADSTSVEAMYSVASQCLHEKKNKRPDIKKVQQLLQEMTAS [F25D]	disrupting interaction
MNKPITPSTYVRCLNVGLIRKLSDFIDPQEGWKKLAVAIKKPSGDDRYNKFHIRRFEALLQTGKSPTSELLFDWGTTNCTVGDLVDLLIQNEFFAPASLLLPDAVPKTANTLPSKEAITVQQKQMPFCDKDRTLMTPVQNLEQSYMPPDSSSPENKSLEVSDTRFHSFSFYELKNVTNNFDERPISVGGNKMGEGGFGVVYKGYVNNTTVAVKKLAAMVDITTEELKQQFDQEIKVMAKCQHENLVELLGFSSDGDDLCLVYVYMPNGSLLDRLSCLDGTPPLSWHMRCKIAQGAANGINFLHENHHIHRDIKSANILLDEAFTAKISDFGLARASEKFAQTVMTSRIVGTTAYMAPEALRGEITPKSDIYSFGVVLLEIITGLPAVDEHREPQLLLDIKEEIEDEEKTIEDYIDKKMNDADSTSVEAMYSVASQCLHEKKNKRPDIKKVQQLLQEMTAS [Q50K]	disrupting interaction

Next, values leading:

effect of a mutation on the interaction	Variant
disrupting interaction	MNKPITPSTYVRCLNVGLIRKLSDFIDPQEGWKKLAVAIKKPSGDDRYNQFHIRRFEALLQTGKSPTSELLFDWGTTNCTVGDLVDLLIQNEFFKPASLLLPDAVPKTANTLPSKEAITVQQKQMPFCDKDRTLMTPVQNLEQSYMPPDSSSPENKSLEVSDTRFHSFSFYELKNVTNNFDERPISVGGNKMGEGGFGVVYKGYVNNTTVAVKKLAAMVDITTEELKQQFDQEIKVMAKCQHENLVELLGFSSDGDDLCLVYVYMPNGSLLDRLSCLDGTPPLSWHMRCKIAQGAANGINFLHENHHIHRDIKSANILLDEAFTAKISDFGLARASEKFAQTVMTSRIVGTTAYMAPEALRGEITPKSDIYSFGVVLLEIITGLPAVDEHREPQLLLDIKEEIEDEEKTIEDYIDKKMNDADSTSVEAMYSVASQCLHEKKNKRPDIKKVQQLLQEMTAS [A95K]
disrupting interaction	MNKPITPSTYVRCLNVGLIRKLSDFIDPQEGWKKLAVAIKKPSGDDRYNQFHIDRFEALLQTGKSPTSELLFDWGTTNCTVGDLVDLLIQNEFFAPASLLLPDAVPKTANTLPSKEAITVQQKQMPFCDKDRTLMTPVQNLEQSYMPPDSSSPENKSLEVSDTRFHSFSFYELKNVTNNFDERPISVGGNKMGEGGFGVVYKGYVNNTTVAVKKLAAMVDITTEELKQQFDQEIKVMAKCQHENLVELLGFSSDGDDLCLVYVYMPNGSLLDRLSCLDGTPPLSWHMRCKIAQGAANGINFLHENHHIHRDIKSANILLDEAFTAKISDFGLARASEKFAQTVMTSRIVGTTAYMAPEALRGEITPKSDIYSFGVVLLEIITGLPAVDEHREPQLLLDIKEEIEDEEKTIEDYIDKKMNDADSTSVEAMYSVASQCLHEKKNKRPDIKKVQQLLQEMTAS [R54D]
